# Assay results as given in patent US20260167710A1.
# Assays:
# [1] = target: human recombinant neonatal receptor (FcRn) (human) (UniProt P55899); experiment: SPR (ProteOn XPR36), antibody captured by protein L, FcRn as analyte, equilibrium fit, pH 6.0, 25 C
# [2] = target: cynomolgus recombinant neonatal receptor (FcRn) (cynomolgus monkey) (UniProt Q8SPV9); experiment: as above
# [3] = target: human recombinant neonatal receptor (FcRn) (human) (UniProt P55899); experiment: SPR (ProteOn XPR36), antibody captured by protein L, FcRn as analyte, equilibrium fit, pH 7.4, 25 C
# [4] = target: cynomolgus recombinant neonatal receptor (FcRn) (cynomolgus monkey) (UniProt Q8SPV9); experiment: as above
# hFcgRIIa (H131) (human) = hFcgRIIa (H131) (human) (UniProt P12318); experiment: SPR (ProteOn XPR36), anti-poly-histidine IgG surface, antibody as analyte, equilibrium fit, 25 C
# [5] = target: cFcgRIIa (cynomolgus monkey); experiment: as above
# hFcgRI (human) = hFcgRI (human) (UniProt P12314); experiment: as above
# [6] = target: cFcgRIIb (cynomolgus monkey); experiment: as above
# hFcgRIIIa (V158) (human) = hFcgRIIIa (V158) (human) (UniProt P08637); experiment: as above
# hFcgRIIa (R131) (human) = hFcgRIIa (R131) (human) (UniProt P12318); experiment: as above
# hFcgRIIIa (F158) (human) = hFcgRIIIa (F158) (human) (UniProt P08637); experiment: as above
# [7] = target: cFcgRIIIa (cynomolgus monkey); experiment: as above
# [8] = target: human complement component C1q (human) (UniProt P02745); experiment: SPR (ProteOn XPR36), antibody immobilised by amine coupling, C1q as analyte, equilibrium fit, 25 C
# Chain of human complement component C1q (human) (P02745 23-245 limits assumed, chain 1 of 3): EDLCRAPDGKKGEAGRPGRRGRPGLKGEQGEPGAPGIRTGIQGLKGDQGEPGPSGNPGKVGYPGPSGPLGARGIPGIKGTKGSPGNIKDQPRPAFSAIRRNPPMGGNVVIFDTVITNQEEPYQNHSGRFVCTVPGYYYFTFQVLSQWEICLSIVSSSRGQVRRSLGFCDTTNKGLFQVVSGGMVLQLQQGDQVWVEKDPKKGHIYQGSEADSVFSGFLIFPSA
# Chain of human complement component C1q (human) (P02746 28-253 limits assumed, chain 2 of 3, further chain): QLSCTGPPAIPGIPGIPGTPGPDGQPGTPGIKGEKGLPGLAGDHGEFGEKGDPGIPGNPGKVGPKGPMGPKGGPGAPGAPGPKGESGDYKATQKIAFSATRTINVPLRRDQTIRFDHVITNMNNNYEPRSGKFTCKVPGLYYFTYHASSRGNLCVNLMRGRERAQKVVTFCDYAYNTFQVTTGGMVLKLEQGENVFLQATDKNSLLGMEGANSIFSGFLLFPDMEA
# Chain of human complement component C1q (human) (P02747 29-245 limits assumed, chain 3 of 3, further chain): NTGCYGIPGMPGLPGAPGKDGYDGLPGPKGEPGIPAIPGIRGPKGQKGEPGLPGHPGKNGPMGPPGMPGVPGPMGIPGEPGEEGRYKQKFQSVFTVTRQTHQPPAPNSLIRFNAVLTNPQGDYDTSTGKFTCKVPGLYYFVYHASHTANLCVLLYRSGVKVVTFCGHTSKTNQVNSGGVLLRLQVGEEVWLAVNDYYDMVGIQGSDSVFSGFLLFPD
# Chain of cFcgRIIIa (cynomolgus monkey) (Q8SPW2 17-208): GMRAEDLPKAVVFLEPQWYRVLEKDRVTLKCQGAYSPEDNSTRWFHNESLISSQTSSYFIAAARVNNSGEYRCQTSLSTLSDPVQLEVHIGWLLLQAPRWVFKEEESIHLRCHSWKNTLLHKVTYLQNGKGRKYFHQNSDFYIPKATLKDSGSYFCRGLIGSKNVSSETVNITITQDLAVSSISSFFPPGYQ
# Chain of hFcgRIIIa (V158) (human) (P08637 17-208 F176V): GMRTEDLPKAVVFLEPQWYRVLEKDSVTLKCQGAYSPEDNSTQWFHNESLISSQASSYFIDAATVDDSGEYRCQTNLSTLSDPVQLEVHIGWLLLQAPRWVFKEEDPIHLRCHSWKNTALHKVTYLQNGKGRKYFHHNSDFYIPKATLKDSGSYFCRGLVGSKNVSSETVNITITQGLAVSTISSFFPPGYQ
# Chain of hFcgRIIa (H131) (human) (P12318 34-217): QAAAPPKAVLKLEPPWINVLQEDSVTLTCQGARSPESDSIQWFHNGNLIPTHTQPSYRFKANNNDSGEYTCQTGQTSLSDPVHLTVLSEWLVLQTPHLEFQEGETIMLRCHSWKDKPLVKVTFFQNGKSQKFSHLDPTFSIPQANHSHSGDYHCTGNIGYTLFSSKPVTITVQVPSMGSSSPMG
# Chain of hFcgRIIIa (F158) (human) (P08637 17-208): as the sequence (P08637 17-208 F176V) above, with V160F counted along it
# Chain of hFcgRIIa (R131) (human) (P12318 34-217 H167R): as the sequence (P12318 34-217) above, with H134R counted along it
# Chain of hFcgRI (human) (P12314 16-292): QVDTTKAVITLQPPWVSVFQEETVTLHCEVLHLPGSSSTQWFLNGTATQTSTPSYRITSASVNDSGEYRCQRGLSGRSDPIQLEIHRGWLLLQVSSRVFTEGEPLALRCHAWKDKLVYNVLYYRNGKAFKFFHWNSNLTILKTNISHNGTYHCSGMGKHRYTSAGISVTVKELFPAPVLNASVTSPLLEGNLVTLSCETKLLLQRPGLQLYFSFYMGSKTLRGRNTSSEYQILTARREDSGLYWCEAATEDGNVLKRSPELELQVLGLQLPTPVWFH
Kd (hFcgRIIa (H131) (human)) [nM],Kd [5] [nM],Kd (hFcgRI (human)) [nM],Kd [6] [nM],Kd (hFcgRIIIa (V158) (human)) [nM],Kd (hFcgRIIa (R131) (human)) [nM],Kd (hFcgRIIIa (F158) (human)) [nM],Kd [7] [nM],Kd [8] [nM],Substance,Kd [1] [nM],Kd [2] [nM],Kd [3] [µM],Kd [4] [nM]
,,,,,,,,,Human IgG1 YTE control (antibody),30.4,39.3,4.33,2760
884,2210,28.3,1450,232,528,735,141,680,Anti-RSV hIgG1 wildtype control (antibody),129,146,,
